Measurements taken from patent US20130315910A1 (Xencor, published 2013).

T1: human FcγRIIb receptor protein (R&D Systems) (human, UniProt P31994 46-217)
T1 construct: Bought protein injected over captured antibody in Biacore; also called CD32b
T1 sequence (looked up): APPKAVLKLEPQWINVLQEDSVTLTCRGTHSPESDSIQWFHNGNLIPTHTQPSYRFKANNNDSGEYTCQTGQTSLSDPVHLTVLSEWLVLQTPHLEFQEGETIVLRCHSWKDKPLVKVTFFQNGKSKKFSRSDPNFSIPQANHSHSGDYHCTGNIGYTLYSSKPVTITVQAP

T2: cynoFcγRIIb (Macaca fascicularis, UniProt A0A140HDP4)
T2 construct: extracellular region, C-terminal His- and GST-tag; also called cynomolgus monkey FcγRIIb
T2 sequence (receptor extracellular region): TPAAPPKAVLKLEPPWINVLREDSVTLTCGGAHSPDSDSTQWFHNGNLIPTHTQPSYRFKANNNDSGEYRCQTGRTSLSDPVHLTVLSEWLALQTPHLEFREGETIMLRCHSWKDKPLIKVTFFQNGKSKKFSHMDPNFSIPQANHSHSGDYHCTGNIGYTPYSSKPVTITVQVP

T3: mFcγRIIb (Mus musculus, UniProt P08101)
T3 construct: extracellular region, C-terminal His- and GST-tag; also called mouse FcγRII
T3 sequence (receptor extracellular region, looked up): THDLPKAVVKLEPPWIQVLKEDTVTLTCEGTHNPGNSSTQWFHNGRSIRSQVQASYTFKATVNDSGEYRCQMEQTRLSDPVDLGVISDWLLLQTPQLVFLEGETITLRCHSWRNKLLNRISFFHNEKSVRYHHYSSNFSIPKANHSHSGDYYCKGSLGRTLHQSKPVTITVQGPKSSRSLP

T4: human FcγRIIa (131R), His- and GST-tagged (human, UniProt P12318 34-217)
T4 construct: Expressed in HEK293T cells, purified by nickel chromatography; also called R131 FcγRIIa; not shown: 6xHis and GST tags of the pTT5 vector
T4 sequence (looked up): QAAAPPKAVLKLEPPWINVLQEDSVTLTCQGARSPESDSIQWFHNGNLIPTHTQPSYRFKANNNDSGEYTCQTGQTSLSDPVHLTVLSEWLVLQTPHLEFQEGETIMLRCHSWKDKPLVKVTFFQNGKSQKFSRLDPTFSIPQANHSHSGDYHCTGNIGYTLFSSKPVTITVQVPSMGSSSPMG

T5: human FcγRIIa (131H), His- and GST-tagged (human, UniProt P12318 34-217)
T5 construct: also called H131 FcγRIIa; HIIa; not shown: 6xHis and GST tags of the pTT5 vector
T5 sequence (looked up): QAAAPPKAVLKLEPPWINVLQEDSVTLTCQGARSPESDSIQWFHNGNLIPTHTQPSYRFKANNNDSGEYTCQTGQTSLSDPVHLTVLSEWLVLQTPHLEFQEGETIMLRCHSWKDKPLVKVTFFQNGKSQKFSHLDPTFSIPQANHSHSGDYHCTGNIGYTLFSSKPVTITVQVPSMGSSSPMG


How the values were obtained:
Assay in all cases: SPR
[1] = target: T1, human FcγRIIb receptor protein (R&D …)
Protocol: (§1) Variants were screened for receptor affinity using Biacore™ technology, also referred to as Biacore herein, a surface plasmon resonance (SPR) based technology for studying biomolecular interactions in real time. SPR measurements were performed using a Biacore 3000 instrument (Biacore, Piscataway, N.J.). A protein A/G (Pierce Biotechnology) CM5 biosensor chip (Biacore) was generated using a standard primary amine coupling protocol. All measurements were performed using HBS-EP buffer (10 mM HEPES pH 7.4, 0.15 M NaCl, 3 mM EDTA, 0.005% vol/vol surfactant P20, Biacore). Antibodies at 20 nM or 50 nM in HBS-EP buffer were immobilized on the protein A/G surface and FcγRs were injected. After each cycle, the surface was regenerated by injecting glycine buffer (10 mM, pH 1.5). Data were processed by zeroing time and response before the injection of FcγR and by subtracting appropriate nonspecific signals (response of reference channel and injection of running buffer). Kinetic analyses were performed by global fitting of binding data with a 1:1 Langmuir binding model using BIAevaluation software (Biacore).

[2] = target: T2, cynoFcγRIIb
Protocol: as §1
(§2) Variant antibodies were tested for their affinity to mouse or cynologous monkey FcγRs using Biacore SPR as described above. Specifically, antibodies were first immobilized on a protein A/G chip to high density, and then followed by injections of the extracellular domain of the mouse or cynologous monkey FcγR of interest. Both association and dissociation phases were tracked in real time using the Biacore technology.

[3] = target: T3, mFcγRIIb
Protocol: as §1, §2

[4] = target: T4, human FcγRIIa (131R), His- and …
Protocol: as §1

[5] = target: T5, human FcγRIIa (131H), His- and …
Protocol: as §1

[6] = target: T6, human FcγRI receptor protein (R&D Systems) (human, UniProt P12314 16-288)
T6 construct: also called soluble FcγRI; solFcγRI
Protocol: as §1

T6 sequence (P12314 16-288 limits assumed): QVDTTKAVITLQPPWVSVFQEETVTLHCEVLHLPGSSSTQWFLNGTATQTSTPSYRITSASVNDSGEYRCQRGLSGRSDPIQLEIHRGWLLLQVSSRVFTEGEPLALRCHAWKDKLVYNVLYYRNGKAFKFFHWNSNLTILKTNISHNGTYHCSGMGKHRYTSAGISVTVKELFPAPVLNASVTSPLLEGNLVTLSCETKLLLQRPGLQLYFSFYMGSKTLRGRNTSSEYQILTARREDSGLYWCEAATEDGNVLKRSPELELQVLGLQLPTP

Binder	Fold vs WT IgG1 [1] [fold]	Kd [1] [nM]	Fold vs WT IgG1 (Kd) [2] [fold]	Fold vs WT IgG1 (Kd) [3] [fold]	binding result [1]	binding result [4]	Kd [5] [nM]	Kd [6] [nM]
H268D/L328F/I332E (antibody, human IgG1, kappa, HuAM4G7 anti-CD19 IgG1 (m1) with these Fc substitutions, EU index; copies: 2 + 2) heavy: EVQLVESGGGLVKPGGSLKLSCAASGYTFTSYVMHWVRQAPGKGLEWIGYINPYNDGTKYNEKFQGRVTISSDKSISTAYMELSSLRSEDTAMYYCARGTYYYGTRVFDYWGQGTLVTVSSASTKGPSVFPLAPSSKSTSGGTAALGCLVKDYFPEPVTVSWNSGALTSGVHTFPAVLQSSGLYSLSSVVTVPSSSLGTQTYICNVNHKPSNTKVDKKVEPKSCDKTHTCPPCPAPELLGGPSVFLFPPKPKDTLMISRTPEVTCVVVDVSDEDPEVKFNWYVDGVEVHNAKTKPREEQYNSTYRVVSVLTVLHQDWLNGKEYKCKVSNKAFPAPEEKTISKAKGQPREPQVYTLPPSREEMTKNQVSLTCLVKGFYPSDIAVEWESNGQPENNYKTTPPVLDSDGSFFLYSKLTVDKSRWQQGNVFSCSVMHEALHNHYTQKSLSLSPGK light: DIVMTQSPATLSLSPGERATLSCRSSKSLQNVNGNTYLYWFQQKPGQSPQLLIYRMSNLNSGVPDRFSGSGSGTEFTLTISSLEPEDFAVYYCMQHLEYPITFGAGTKLEIKRTVAAPSVFIFPPSDEQLKSGTASVVCLLNNFYPREAKVQWKVDNALQSGNSQESVTEQDSKDSTYSLSSTLTLSKADYEKHKVYACEVTHQGLSSPVTKSFNRGEC	12.3	119	4.88	1.48				
L235W (antibody, human IgG1, kappa, HuAM4G7 anti-CD19 IgG1 (m1) with this Fc substitution, EU index; copies: 2 + 2) heavy: not shown light: DIVMTQSPATLSLSPGERATLSCRSSKSLQNVNGNTYLYWFQQKPGQSPQLLIYRMSNLNSGVPDRFSGSGSGTEFTLTISSLEPEDFAVYYCMQHLEYPITFGAGTKLEIKRTVAAPSVFIFPPSDEQLKSGTASVVCLLNNFYPREAKVQWKVDNALQSGNSQESVTEQDSKDSTYSLSSTLTLSKADYEKHKVYACEVTHQGLSSPVTKSFNRGEC			1.44		no binding	no binding		
H268E/L328Y/I332E (antibody, human IgG1, kappa, HuAM4G7 anti-CD19 IgG1 (m1) with these Fc substitutions, EU index; copies: 2 + 2) heavy: EVQLVESGGGLVKPGGSLKLSCAASGYTFTSYVMHWVRQAPGKGLEWIGYINPYNDGTKYNEKFQGRVTISSDKSISTAYMELSSLRSEDTAMYYCARGTYYYGTRVFDYWGQGTLVTVSSASTKGPSVFPLAPSSKSTSGGTAALGCLVKDYFPEPVTVSWNSGALTSGVHTFPAVLQSSGLYSLSSVVTVPSSSLGTQTYICNVNHKPSNTKVDKKVEPKSCDKTHTCPPCPAPELLGGPSVFLFPPKPKDTLMISRTPEVTCVVVDVSEEDPEVKFNWYVDGVEVHNAKTKPREEQYNSTYRVVSVLTVLHQDWLNGKEYKCKVSNKAYPAPEEKTISKAKGQPREPQVYTLPPSREEMTKNQVSLTCLVKGFYPSDIAVEWESNGQPENNYKTTPPVLDSDGSFFLYSKLTVDKSRWQQGNVFSCSVMHEALHNHYTQKSLSLSPGK light: DIVMTQSPATLSLSPGERATLSCRSSKSLQNVNGNTYLYWFQQKPGQSPQLLIYRMSNLNSGVPDRFSGSGSGTEFTLTISSLEPEDFAVYYCMQHLEYPITFGAGTKLEIKRTVAAPSVFIFPPSDEQLKSGTASVVCLLNNFYPREAKVQWKVDNALQSGNSQESVTEQDSKDSTYSLSSTLTLSKADYEKHKVYACEVTHQGLSSPVTKSFNRGEC	8.53	172	4.16	1.5				
S239D/S267E/H268E (antibody, human IgG1, kappa, HuAM4G7 anti-CD19 IgG1 (m1) with these Fc substitutions, EU index; copies: 2 + 2) heavy: EVQLVESGGGLVKPGGSLKLSCAASGYTFTSYVMHWVRQAPGKGLEWIGYINPYNDGTKYNEKFQGRVTISSDKSISTAYMELSSLRSEDTAMYYCARGTYYYGTRVFDYWGQGTLVTVSSASTKGPSVFPLAPSSKSTSGGTAALGCLVKDYFPEPVTVSWNSGALTSGVHTFPAVLQSSGLYSLSSVVTVPSSSLGTQTYICNVNHKPSNTKVDKKVEPKSCDKTHTCPPCPAPELLGGPDVFLFPPKPKDTLMISRTPEVTCVVVDVEEEDPEVKFNWYVDGVEVHNAKTKPREEQYNSTYRVVSVLTVLHQDWLNGKEYKCKVSNKALPAPIEKTISKAKGQPREPQVYTLPPSREEMTKNQVSLTCLVKGFYPSDIAVEWESNGQPENNYKTTPPVLDSDGSFFLYSKLTVDKSRWQQGNVFSCSVMHEALHNHYTQKSLSLSPGK light: DIVMTQSPATLSLSPGERATLSCRSSKSLQNVNGNTYLYWFQQKPGQSPQLLIYRMSNLNSGVPDRFSGSGSGTEFTLTISSLEPEDFAVYYCMQHLEYPITFGAGTKLEIKRTVAAPSVFIFPPSDEQLKSGTASVVCLLNNFYPREAKVQWKVDNALQSGNSQESVTEQDSKDSTYSLSSTLTLSKADYEKHKVYACEVTHQGLSSPVTKSFNRGEC		6.91					817	0.326
S239D/A327D/L328Y (antibody, human IgG1, kappa, HuAM4G7 anti-CD19 IgG1 (m1) with these Fc substitutions, EU index; copies: 2 + 2) heavy: EVQLVESGGGLVKPGGSLKLSCAASGYTFTSYVMHWVRQAPGKGLEWIGYINPYNDGTKYNEKFQGRVTISSDKSISTAYMELSSLRSEDTAMYYCARGTYYYGTRVFDYWGQGTLVTVSSASTKGPSVFPLAPSSKSTSGGTAALGCLVKDYFPEPVTVSWNSGALTSGVHTFPAVLQSSGLYSLSSVVTVPSSSLGTQTYICNVNHKPSNTKVDKKVEPKSCDKTHTCPPCPAPELLGGPDVFLFPPKPKDTLMISRTPEVTCVVVDVSHEDPEVKFNWYVDGVEVHNAKTKPREEQYNSTYRVVSVLTVLHQDWLNGKEYKCKVSNKDYPAPIEKTISKAKGQPREPQVYTLPPSREEMTKNQVSLTCLVKGFYPSDIAVEWESNGQPENNYKTTPPVLDSDGSFFLYSKLTVDKSRWQQGNVFSCSVMHEALHNHYTQKSLSLSPGK light: DIVMTQSPATLSLSPGERATLSCRSSKSLQNVNGNTYLYWFQQKPGQSPQLLIYRMSNLNSGVPDRFSGSGSGTEFTLTISSLEPEDFAVYYCMQHLEYPITFGAGTKLEIKRTVAAPSVFIFPPSDEQLKSGTASVVCLLNNFYPREAKVQWKVDNALQSGNSQESVTEQDSKDSTYSLSSTLTLSKADYEKHKVYACEVTHQGLSSPVTKSFNRGEC	11.9	123	1.31	45.3				
S267A/H268D/L328Y (antibody, human IgG1, kappa, HuAM4G7 anti-CD19 IgG1 (m1) with these Fc substitutions, EU index; copies: 2 + 2) heavy: EVQLVESGGGLVKPGGSLKLSCAASGYTFTSYVMHWVRQAPGKGLEWIGYINPYNDGTKYNEKFQGRVTISSDKSISTAYMELSSLRSEDTAMYYCARGTYYYGTRVFDYWGQGTLVTVSSASTKGPSVFPLAPSSKSTSGGTAALGCLVKDYFPEPVTVSWNSGALTSGVHTFPAVLQSSGLYSLSSVVTVPSSSLGTQTYICNVNHKPSNTKVDKKVEPKSCDKTHTCPPCPAPELLGGPSVFLFPPKPKDTLMISRTPEVTCVVVDVADEDPEVKFNWYVDGVEVHNAKTKPREEQYNSTYRVVSVLTVLHQDWLNGKEYKCKVSNKAYPAPIEKTISKAKGQPREPQVYTLPPSREEMTKNQVSLTCLVKGFYPSDIAVEWESNGQPENNYKTTPPVLDSDGSFFLYSKLTVDKSRWQQGNVFSCSVMHEALHNHYTQKSLSLSPGK light: DIVMTQSPATLSLSPGERATLSCRSSKSLQNVNGNTYLYWFQQKPGQSPQLLIYRMSNLNSGVPDRFSGSGSGTEFTLTISSLEPEDFAVYYCMQHLEYPITFGAGTKLEIKRTVAAPSVFIFPPSDEQLKSGTASVVCLLNNFYPREAKVQWKVDNALQSGNSQESVTEQDSKDSTYSLSSTLTLSKADYEKHKVYACEVTHQGLSSPVTKSFNRGEC	10.7	137	3.26	32.4				
